Consider two molecules from patent US20240309103A1 (Regeneron, published 2024).

In general, Kd refers to a measure of binding affinity in units of concentration. What is called koff is the first-order rate constant of dissociation. For orientation: kon means the second-order rate constant of association. The term t½ denotes the time in which the quantity being followed falls by half.

In assay [1] the target is T1, mouse NPR1 extracellular domain expressed with a C-terminal mouse IgG2a (mNPR1-mFc) (mouse).
T1 chain: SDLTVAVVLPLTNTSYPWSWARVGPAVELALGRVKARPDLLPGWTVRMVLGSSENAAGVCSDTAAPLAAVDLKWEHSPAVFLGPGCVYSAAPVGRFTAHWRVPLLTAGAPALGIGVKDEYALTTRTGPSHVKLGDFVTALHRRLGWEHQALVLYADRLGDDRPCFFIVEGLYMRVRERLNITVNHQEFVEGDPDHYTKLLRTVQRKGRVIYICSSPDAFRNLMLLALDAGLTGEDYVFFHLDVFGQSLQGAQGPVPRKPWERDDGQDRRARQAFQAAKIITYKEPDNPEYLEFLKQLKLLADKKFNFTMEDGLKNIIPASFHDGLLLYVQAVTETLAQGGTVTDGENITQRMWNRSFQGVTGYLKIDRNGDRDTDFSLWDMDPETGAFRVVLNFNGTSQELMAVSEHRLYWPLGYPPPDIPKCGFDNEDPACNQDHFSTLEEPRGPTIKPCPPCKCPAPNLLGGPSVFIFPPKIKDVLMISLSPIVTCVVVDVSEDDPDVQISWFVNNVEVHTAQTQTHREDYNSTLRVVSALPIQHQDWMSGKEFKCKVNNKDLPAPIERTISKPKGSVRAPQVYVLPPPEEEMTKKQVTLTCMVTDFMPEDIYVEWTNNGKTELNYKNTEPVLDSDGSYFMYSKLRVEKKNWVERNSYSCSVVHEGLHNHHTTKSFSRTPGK
The experiment in a line: SPR, Tables 21 to 26. In outline: (§1)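 Equilibrium dissociation constants come from surface plasmon resonance, with the NPR1 reagent flowed over captured antibody. The capture layer was anti-human Fc (monoclonal or goat polyclonal), amine-coupled onto a CM5 chip. Buffer was HEPES-buffered saline with EDTA and 0.05% Tween-20, pH 7.4.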

In assay [2] the target is T2, human NPR1 extracellular domain expressed with a C-terminal myc-myc-hexahistidine (hNPR1-MMH) (human, UniProt P16066 33-473).
T2 construct: also called hNPR.mmh; monomeric human NPR1
Kind of assay: SPR, mAb captured, 37 C. An outline of the steps: as §1
In general terms: Surface plasmon resonance follows binding to a sensor surface in real time, without labels.

For assay [3], the target named is T3, human NPR1 extracellular domain expressed with a C-terminal mouse IgG2a (hNPR1-mFc) (human).
T3 construct: also called hNPR1-Fc; human NPR1 dimer
T3 chain: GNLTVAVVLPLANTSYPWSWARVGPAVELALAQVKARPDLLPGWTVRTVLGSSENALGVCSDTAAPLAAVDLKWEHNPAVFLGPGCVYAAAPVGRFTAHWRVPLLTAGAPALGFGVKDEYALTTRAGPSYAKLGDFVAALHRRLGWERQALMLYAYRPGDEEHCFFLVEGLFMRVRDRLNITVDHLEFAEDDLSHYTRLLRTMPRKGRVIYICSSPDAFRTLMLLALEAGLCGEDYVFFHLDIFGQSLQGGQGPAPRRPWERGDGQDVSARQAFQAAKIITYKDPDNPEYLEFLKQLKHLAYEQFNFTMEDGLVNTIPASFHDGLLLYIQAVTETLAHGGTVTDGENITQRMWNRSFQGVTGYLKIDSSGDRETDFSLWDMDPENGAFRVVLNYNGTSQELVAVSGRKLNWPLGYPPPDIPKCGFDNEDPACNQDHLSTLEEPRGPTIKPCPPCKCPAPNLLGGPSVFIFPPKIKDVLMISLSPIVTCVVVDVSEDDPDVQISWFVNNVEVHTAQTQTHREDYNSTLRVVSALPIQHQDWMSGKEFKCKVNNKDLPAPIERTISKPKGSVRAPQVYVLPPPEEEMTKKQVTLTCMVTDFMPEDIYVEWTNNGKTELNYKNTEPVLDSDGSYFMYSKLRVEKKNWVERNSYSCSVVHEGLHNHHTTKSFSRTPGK
The experiment in a line: SPR, mAb captured, 37 C. In outline: as §1

Assay [4] has as its target T4, monkey NPR1 extracellular domain expressed with a C-terminal myc-myc-hexahistidine (mfNPR1-MMH) (monkey, UniProt P16066 33-473 (human entry)).
T4 construct: also called monomeric monkey NPR1
T4 chain: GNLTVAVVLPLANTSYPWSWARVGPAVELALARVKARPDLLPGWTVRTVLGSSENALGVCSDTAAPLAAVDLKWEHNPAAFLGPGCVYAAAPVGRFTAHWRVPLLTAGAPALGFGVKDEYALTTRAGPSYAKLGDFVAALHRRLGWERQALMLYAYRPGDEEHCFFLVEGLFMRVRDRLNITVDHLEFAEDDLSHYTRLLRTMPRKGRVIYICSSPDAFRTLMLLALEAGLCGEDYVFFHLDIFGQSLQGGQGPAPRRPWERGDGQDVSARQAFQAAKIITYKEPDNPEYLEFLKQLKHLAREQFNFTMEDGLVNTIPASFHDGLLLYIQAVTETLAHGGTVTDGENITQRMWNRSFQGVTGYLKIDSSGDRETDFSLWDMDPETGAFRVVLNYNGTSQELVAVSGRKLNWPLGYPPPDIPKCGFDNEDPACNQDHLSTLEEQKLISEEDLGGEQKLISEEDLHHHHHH
Kind of assay: SPR, mAb captured, 37 C. An outline of the steps: as §1

The target of assay [5] is mouse NPR1 extracellular domain expressed with a C-terminal myc-myc-hexahistidine (mNPR1-MMH) (mouse, UniProt P18293 29-469). The experiment in a line: SPR, mAb captured, 37 C. In outline:
as §1

Sequence of mouse NPR1 extracellular domain expressed with a C-terminal myc-myc-hexahistidine (mNPR1-MMH) (P18293 other isoform, or with tags, fused parts or gaps): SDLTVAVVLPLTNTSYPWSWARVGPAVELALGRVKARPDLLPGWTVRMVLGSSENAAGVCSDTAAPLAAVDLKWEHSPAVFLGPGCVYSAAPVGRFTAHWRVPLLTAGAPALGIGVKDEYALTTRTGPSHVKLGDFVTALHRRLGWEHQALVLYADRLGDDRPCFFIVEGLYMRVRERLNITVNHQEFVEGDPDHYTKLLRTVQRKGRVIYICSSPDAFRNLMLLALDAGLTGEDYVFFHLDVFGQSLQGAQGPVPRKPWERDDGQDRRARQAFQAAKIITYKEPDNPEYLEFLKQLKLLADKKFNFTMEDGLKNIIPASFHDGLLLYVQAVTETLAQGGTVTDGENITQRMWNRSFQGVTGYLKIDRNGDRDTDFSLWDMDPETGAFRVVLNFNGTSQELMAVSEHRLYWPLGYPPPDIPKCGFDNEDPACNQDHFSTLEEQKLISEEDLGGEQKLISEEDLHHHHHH

B1: mAb22033 (antibody, V domains shown)
VH: QVQLVQSGAEVKKPGASVTVSCKASGYTFTDYYMHWVRQAPGQGLEWMGWIKPNSGGTNSAQRFQGRITMTWDTSISTAYMELSRLRSDDTAVYYCSRGGPVMNYYYYYGMDVWGQGTTVTVSS
VL: NIQMTQSPSSLSASVGDRVTITCRASQSIDSYLNWYQQKPGKAPKLLIYVASSLQSGVPSRFSGSGSGKDFTLTISSLQPEDFATYYCQQSYSIPTFGQGTRLEIK
For B1, in assay [1], the binding result is reported as “no binding”. Moreover, in assay [2], the “100 nM Ag Bound (RU)” value was found to be 52 RU, binding was put at a Kd of 136 nM, the koff worked out at 0.000819 s⁻¹ and the kon amounted to 6030 M⁻¹ s⁻¹. Also, the t½ in assay [2] was 14.1 min. In assay [3], the “100 nM Ag Bound (RU)” value is 75 RU, binding was characterised by a dissociation constant (Kd) of 3.56 nM, the koff is 0.000131 s⁻¹ and the kon was 36800 M⁻¹ s⁻¹. In assay [3], the t½ turned out to be 88.2 min. For the same molecule, in assay [4], the “100 nM Ag Bound (RU)” value came out at 131 RU; the affinity, expressed as Kd, was 27.8 nM; the off-rate constant (koff) is 0.000697 s⁻¹; the kon is 25100 M⁻¹ s⁻¹. Moreover, the t½ in assay [4] was found to be 16.6 min. Also, the “100 nM Ag Bound (RU)” value in assay [5] came out at 1 RU.

B2: mAb22035 (antibody, V domains shown)
VH: EVQLVESGGGLVQPGRSLRLSCAASGFTFDDYAMHWVRQAPGKGLEWVSGISWNSGTIGYADSVKGRFTMSRDNAKNSLYLQMNSLRPEDTALYYCAKDMGVSLALWGAFDIWGQGTMVTVSS
VL: DIQMTQSPSSLSASVGDKVTITCRASQNIRTYLNWYQQKPGKAPKVLISTASSLQSGVPSRFSGSGSGTDFTLTISSLQPEDFAVFYCQQSFGIPRTFGQGTKVEIK
B2: the binding result in assay [1] is reported as “no binding”. Besides, in assay [2], the “100 nM Ag Bound (RU)” value was 284 RU, the Kd turned out to be 1.3 nM, the koff is 0.000312 s⁻¹ and the kon turned out to be 240000 M⁻¹ s⁻¹. The same molecule returned a t½ in assay [2] of 37.1 min. For the same molecule, in assay [3], the “100 nM Ag Bound (RU)” value came to 257 RU, binding was put at a Kd of 0.2 nM, the koff came to 0.000127 s⁻¹ and the kon worked out at 636000 M⁻¹ s⁻¹. Moreover, the t½ in assay [3] amounted to 90.8 min. Moreover, in assay [4], the “100 nM Ag Bound (RU)” value came to 319 RU, the Kd was determined as 0.702 nM, the koff was 0.000374 s⁻¹ and the kon stood at 532000 M⁻¹ s⁻¹. In addition, in assay [4], the t½ was found to be 30.9 min. The “100 nM Ag Bound (RU)” value in assay [5] was 1 RU.
